Biological target: eOD-GT8 (monomeric ligand) (Human immunodeficiency virus 1, …)

Row | Binder | Kd [nM]
1 | g5-D78-13_CLK19 (antibody, V domains shown) VH: QVQLVQSGAEVKKPGASVKVSCKASGYIFTDYNMHWVRQAPGQGLEWMGWINPSFGGRNIVQKFQGRVTMTRDTSISTAYMELSGLRSDDTAVYFCTPVLAPFRWRFAYWGQGTLVTVSS VL: DIQMTQSPSSLSASVGDRVTITCQASQDINYLNWYQQKPGKAPKLLIYDASNLETGVPSRFSGSGSGTDFTFTISSLQPEDIATYYCQQYAAFGPGTKVNIK | 4.9
2 | g5-D78-3_CLK19 (antibody, V domains shown) VH: QVQLVQSGAEVKKPGASVKVSCKASGYIFTDYNMHWVRQAPGQGLEWMGWINPSFGGRNIVQKFQGRVTMTRDTSISTAYMELSGLRSDDTAVYFCTPVLAPFRWPFAYWGQGTLVTVSS VL: DIQMTQSPSSLSASVGDRVTITCQASQDINYLNWYQQKPGKAPKLLIYDASNLETGVPSRFSGSGSGTDFTFTISSLQPEDIATYYCQQYAAFGPGTKVDNK | 0.87
3 | g5-D78-20_CLK19 (antibody, V domains shown) VH: QVQLVQSGAEVKKPGASVKVSCKASGYIFTDYNMHWVRQAPGQGLEWMAWINPRSGGRNIVQKFQGRVTMTRDTSISTAFMELSGLRSDDTAVYFCTPVLAPFRWRFAYWGQGTLVTVSS VL: DIQMTQSPSSLSASVGDRVTITCQASQDINYLNWYQQKPGKAPKLLIYDASNLETGVPSRFSGSGSGTDFTFTISSLQPENIATYYCQQYAAFGPGTKVDIK | 3.4
4 | g5-D78-4_CLK19 (antibody, V domains shown) VH: QVQLVQSGAEVKKPGASVKVSCKASGYIFTDYNMHWVRQAPGQGLEWMGWINPRFGGRNIVQKFQGRVTMTRDTSSSTAYMELSGLRSDDTAVYFCTPVLAPFRWPFAYWGQGTLVTVSS VL: DIQMTQSPSSLSASVGDRVTITCQASQDINYLNWYQQKPGKAPKLLIYDASNLETGVPSRFSGSGSGTDFTFTISSLQPEDIATYYCQQYAAFGPGTKVDIK | 2.1
5 | g5-D78-9_CLK19 (antibody, V domains shown) VH: QVQLVQSGAEVKKPGASVKVSCKASGYIFTDYNMHWVRQAPGQGLEWMGWINPRFGGRNIVQKFQGRVTMTRDTSISTAYMELSGLRSDDTAVYFCTPVLAPFRWPFAYWGQGTLVTVSS VL: DIQMTQSPSSLSASVGDRVTITCQASQDINYLNWYQQKPGKAPKLLIYDASNLETGVPSRFSGSGSGTDFTFTISSLQPEDIATYYCQQYAAFGPGTKVDIK | 2.1
6 | g5-D78-15_CLK19 (antibody, V domains shown) VH: QVQLVQSGAEVKKPGASVKVSCKASGYIFTDYNMHWVRQAPGQGLEWMGWINPSFGGRNIVQKFQGRVTMTRDTSISTAYMELSGLRSDDTAVYFCTPVLAPFRWPFVYWGQGTLVTVSS VL: DIQMTQSPSSLSASVGDRVTITCQASQDINYLNWYQQKPGKAPKLLIYDASNLETGVPSRFSGSGSGTDFSFTISSLQPEDIATYYCQQYAAFGPGTKVDIK | 0.92
7 | g5-D78-14_CLK19 (antibody, V domains shown) VH: QVQLVQSGAEVKKPGASVKVSCKASGYTFTGYYIHWVRQAPGQGLEWMGWINPSYGAVNYARKFQGRVTMTRDTSITTAYMELQRLRSDDTAIYYCTIALAGYRWGFDYWGQGALVTVSS VL: DIQMTQSPSSLSAFVGDRVTITCQARLDIRYSLNWYQQKPGKAPNLLIYDASNLETGVPSRFSGSGSGTNFTFTINTLQPEDIATYYCQQYETFGPGTKVDIK | 11
8 | g5-D78-18_CLK19 (antibody, V domains shown) VH: QVQLVQSGAEVKKPGASVKVSCKASGYTFTGYYIHWVRQAPGQGLEWMGWINPTYGAVNYARKFQGRVTMTRDTSISTAYMELQSLRSDDTAIYHCTIALAGYRWGFDYWGQGALVTVSS VL: DIQMTQSPSSLSAFVGDRVTITCQARLDIRYSLNWYQQKPGKAPNLLIYDASNLETGVPSRFSGSGSGTNFTFTISTLQPEDIATYYCQQYETFGPGTKVDIK | 12
9 | g5-D78-22_CLK19 (antibody, V domains shown) VH: QVQLVQSGAEVKKPGASVKVSCKASGYTFTGYYIHWVRQAPGHGLEWLGWINPNYGAVNYARKFQGRVTLTRDTSISTAFMELQSLRSDDTAIYHCTISLAGYRWGFDYWGQGALVTVSS VL: DIQMTQSPSSLSAFVGDRVTITCQARLDIRYSLNWYQQKPGKAPNLLIYDVSNLEIGVPSRFSGSGSGTNFTFTISTLQPEDIATYYCQQYETFGPGTKVDIK | 100
10 | g5-D78-7_CLK19 (antibody, V domains shown) VH: QVQLVQSGAEVKKPGASVKVSCKASGYTFTGYYIHWVRQAPGQGLEWMGWINPSYGAVNYARKFQGRVTMTRDTSISTAYMELQRLRSDDTAIYHCTIALAGYRWGFDYWGQGALVTVSS VL: DIQMTQSPSSLSAFVGDRVTITCQARLDISYSLNWYQQKPGKAPNLLIYDASNLETGVPSRFSGSGSGTNFTFAISALQPEDIATYYCQQYETFGPGTKVHIK | 23
11 | g5-D78-16_CLK19 (antibody, V domains shown) VH: QVQLVQSGAEVKKPGASVKVSCKASGYTFTGYYIHWVRQAPGQGLEWMGWINPSYGAVNYARKFQGRVTMTRDTSISTAYMELQRLRSDDTAIYHCTIALAGYRWGFDYWGQGALVTVSS VL: DIQMTQSPSSLSAFVGDRVTITCQARLDIRYSLNWYQQKPGKAPNLLIYDASNLETGVPSRFSGSGSGTNFTFTISTLQPEDIATYYCQQYETFGPGTKVHFK | 12
12 | GT8-D36-10_CLK19 (antibody, V domains shown) VH: QVQLVQSGAEVKKPGASVKVSCKASGYSFTGYYIHWVRQAPGQGLEWMGWTNPNSGGTNYAQKLEGRVTMTRDTSISTAYMELSRLRFDDTAVYYCALAGYRWRFDYWGQGTLVTVSS VL: not shown | 4.3
13 | g5-D78-19_CLK09 (antibody, V domains shown) VH: QVQLVQSGAEVKKPGVSVKVSCKASGYTFNGYYMHWVRQAPGQGLEWMGWINPNNGGMNVARRFQDRVTLTRDTSFTTAYMELSRLRSDDSAVYYCARVGGLWFGEKWTFDIWGQGTMVTVSS VL: DIQMTQSPSSLSASVGDRVTITCQTSQDISTFLNWYQQRPGKAPKLLIYGASNLATGVPSRFSGSGSGTDFTFTISSLQPEDIATYYCQQYEFFGGGTKVEIK | 0.2
14 | GT8-D36-14_CLK09 (antibody, V domains shown) VH: not shown VL: DIQMTQSPSSLSASVGDRVTITCQASQDISNYLNWYQQKPGKAPKLLIYDASNLETGVPSRFSGSGSGTDFTFTISSLQPEDIATYYCQQYEFFGGGTKVEIK | 26.9
15 | g5-D78-8_CLK09 (antibody, V domains shown) VH: QVQLVQSGAEVKKPGVSVKVSCKASGYTFNGYYMHWVRQAPGQGLEWMGWINPNNGGINIARRFEDRVTMTRDTSITTAHMELSRLRSDDSAVYYCARVGGLWFGEKWTFDIWGQGTMVTVSS VL: DIQMTQSPSSLSASVGDRVTITCQTSQDISTFLNWYQQRPGKAPKLLIYGACNLATGVPSRFSGSGSGTDFTFTISSLQPEDIATYYCQQYEFFGGGTKVEIK | 0.14
16 | g5-D78-23_CLK09 (antibody, V domains shown) VH: QVQLVQSGAEVKKPGASVKVSCKASGYTFTDYYMHWVRQAPGQGLEWVGWINPNSGGMNFAQRFQDRVTMTRDTSISTAYMELSRLQSDDSAVYFCARVGGLWIGEKWTFDIWGQGTMVTVSS VL: DIQMTQSPSSLSASVGDRVTITCQASQDISTYLNWYQQRPGKAPKLLIYGASNLATGVPSRFSGSGSGTDFTFTISSLQPEDIATYYCQLYEFFGGGTKVEIK | 0.078
17 | GT8-D36-13_CLK09 (antibody, V domains shown) VH: QVQLVQSGAEVKKPGASVKVSCKASGYTFTGYYIHWVRQAPGQGLKWMGWINPNSGGTNYAQKFQGRVTMTRDTSISTAYLELSRLRSDDTAVYYCARVEGLWTFDIWGQGTMVTVSS VL: DIQMTQSPSSLSASVGDRVTITCQASQDISNYLNWYQQKPGKAPKVLIYDASNLETGVPSRFSGSGSGTDFTFTISSLQSEDVATYYCQQYEFFGGGTTVEIK | 534
18 | GT8-D36-15_CLK09 (antibody, V domains shown) VH: QVQLVQSGAEVKKPGASVKVSCKASGYTFTGHYIHWVRQAPGQGLKWMGWINPNSGGTNNAQKFQGRVTMTRDTSISTAYLELSRLRSDDTAVYYCARVEGLWTFDIWGQGTMVTVSS VL: DIQMTQSPSSLSASVGDRVTITCQASQDISNYLNWYQQTPGKAPKLLIYDASNLETGVPSRFSGSGSGTDFTFTISSLQSEDIATYYCQQFEFFGGGTKVEIK | 260
19 | GT8-D36-16_CLK09 (antibody, V domains shown) VH: QVQLVQSGAEVKKPGASVKVSCKASGYTFTGYYIHWVRQAPGQGLKWMGWINPNSGGTNYAQKFQGRVTMTRDTSISTAYLELSRLRSDDTAVYYCARVEGLWTFDIWGQGTMVTVSS VL: DIQMTQSPSSLSASVGDRVTITCQASQDISNYLNWYQQKPGKAPKVLIYDASNLETGVPSRFSGSGSGTDFTFTISSLQSEDIATYYCQQYEFFGGGTKVEIK | 37.9
20 | g5-D78-2_CLK19 (antibody, V domains shown) VH: QVQLVQSGAEVKKPGASVKVSCKTSGYTFTGYFLHWVRQAPGQGLEWMGWINPNSGGINYAQKFQGRVTMTRDTSINTAYMELSRLRSDDTAVYYCTPVLTNFRWPFAFWGQGTLVTVSS VL: DIQMTQSPSSLSASVGDRVTITCQASQDIKNYLNWYQQKPGTAPKLLIYDTSNLETGVPSRFSGRGSGTDFTFTISSLQPEDIATYYCQQYETFGPGTKVDIK | 0.42
21 | g5-D78-6_CLK19 (antibody, V domains shown) VH: QVQLVQSGAEVKKPGASVKVSCKTSGYTFTGYFLHWVRQAPGQGLEWMGWINPNSGGINYAQKFQGRVTMTRDTSIHTAYMELSRLRSDDTAVYYCTPVLTNFRWPFAFWGQGTLVTVSS VL: DIQMTQSPSSLSASVGDRVTITCQASQDIKNYLNWYQQKPGTAPKLLIYDTSNLETGVPSRFSGGGSGTDFTFTISSLQPEDIATYYCQQYETFGPGTKVDIK | 0.26
22 | g5-D78-21_CLK19 (antibody, V domains shown) VH: QVQLVQSGAEVKKPGASVKVSCKTSGYTFTGYFLHWVRQAPGQGLEWMGWINPNSGGINYAQKFQGRVTMTRDTSINTAYMELSRLRSDDTAVYYCTPVLTNFRWPFAFWGQGTLVTVSS VL: DIQMTQSPSSLSASVGDRVTITCQASQDIKNYLNWYQQKPGTAPKLLIYDTSNLETGVPSRFSGSGSGTDFTFTISSLQPEDIATYYCQQYETFGPGTKVDIK | 0.29
23 | g5-D78-5_CLK19 (antibody, V domains shown) VH: QVQLVQSGAEVKKPGASVKVSCKASGYTFTDYFLHWVRQAPGQGLEWMGWINPNRGGVNYAQKFQGRVTMTRDTSINTAYMELSRLRSDDTAVYYCTPILTNFRWRFDFWGQGTLVTVSS VL: DIQMTQSPSSLSASVGDRVTITCQASQDIQNYLNWYQQKPGTAPKLLIYDTSNLETGVPSRFSGSGSGTDFIFTISSLQPEDIATYYCQQYEAFGPGTKVDIK | 2

— article PMC11488661 (Science immunology, 2024)
